The test system of one experiment is Okp1‐Ame1. Put plainly: GST pulldown, Okp1-Ame1. The class given is binding, Saccharomyces cerevisiae. As to conditions: glutathione agarose, 4°C, 1 h, 20 mM Tris, pH 8.5, 200 mM NaCl, 1 mM TCEP; SDS-PAGE. How it is done:
(§1) Figure 3 Biochemical investigation of Okp1‐Ame1‐Cse4^END binding and disruptive point mutations • A GST pulldown assay for Cse4 binding. The indicated COMA complex proteins were tested for their association with immobilized GST‐Cse4^END. • B Fluorescence polarization assay for quantification of Cse4 binding affinities (n = 3 independent replicates). FITC‐labeled Cse4^END peptide was incubated with increasing concentrations of the indicated protein complexes. See also Table 1. • C, D GST pulldown assays as in panel A. Cse4^END and its mutants (L41D, L42D, or L41,42A) were tested in panel C. The indicated Okp1‐Ame1 complexes were tested for their association with GST‐Cse4^END in panel D. Source data are available online for this figure.
(§2) GST‐Cse4^28‐60 was mixed with Okp1‐Ame1, COMA, COMA‐Nkp1‐Nkp2, or Okp1^125‐275 – Ame1^124‐231 and the mixed samples were incubated with glutathione agarose resin at 4°C for 1 h in binding buffer containing 20 mM Tris, pH 8.5, 200 mM NaCl and 1 mM TCEP. Resin was washed at least three times with the same buffer to remove unbound protein, and bound protein then eluted with glutathione. Samples of input and eluate were collected for analysis by SDS–PAGE.

The test system of the next experiment is COMA complex. Put plainly: GST pulldown, COMA. Type of experiment: binding, Saccharomyces cerevisiae. The following applies: glutathione agarose, 4°C, 1 h, 20 mM Tris, pH 8.5, 200 mM NaCl, 1 mM TCEP; compared with COMA-Nkp1-Nkp2. How it is done:
as §1, §2

For another experiment, the system named is COMA‐Nkp1‐Nkp2 complex. Put plainly: GST pulldown, COMA-Nkp1-Nkp2. Type of experiment: binding, Saccharomyces cerevisiae. As to conditions: glutathione agarose, 4°C, 1 h, 20 mM Tris, pH 8.5, 200 mM NaCl, 1 mM TCEP; compared with COMA. How it is done: as §1, §2
Experiment [1] has as its system minimal Okp1‐Ame1 complex (Okp1^125‐275‐Ame1^124‐231). Put plainly: GST pulldown, minimal Okp1-Ame1. Type of experiment: binding, Saccharomyces cerevisiae. As to conditions: glutathione agarose, 4°C, 1 h, 20 mM Tris, pH 8.5, 200 mM NaCl, 1 mM TCEP. How it is done: Figure EV3 Further biochemical characterization of the Okp1‐Ame1‐Cse4^END interaction • Pulldown assay showing binding between the truncated Okp1‐Ame1 complex used for crystallography (Okp1^125‐275l‐Ame1^124‐231) and GST‐Cse4^END. • Recombinant proteins used for pulldowns in Fig 3 were tested for their association with GST to determine the level of non‐specific binding. Results of a GST pulldown assay are shown. • The minimal Okp1‐Ame1 complex used for crystallography was tested for its association with FITC‐Cse4^END in a fluorescence polarization experiment. The measured dissociation constant is ~750 nM (see Materials and Methods; n = 3 independent experiments). • GST‐Cse4^END and its mutants were tested for Okp1‐Ame1 binding. • Full‐length mutant Okp1‐Ame1 complex (EYAA or I195Y as indicated) was tested for its association with FITC‐Cse4^END. • Various Okp1‐Ame1 mutants (indicated above) were tested for binding to GST‐Cse4^END. • Various Okp1‐Ame1 mutants were tested for Cse4^END binding as in panel F. Source data are available online for this figure.
GST‐Cse4^28‐60 was mixed with Okp1‐Ame1, COMA, COMA‐Nkp1‐Nkp2, or Okp1^125‐275 – Ame1^124‐231 and the mixed samples were incubated with glutathione agarose resin at 4°C for 1 h in binding buffer containing 20 mM Tris, pH 8.5, 200 mM NaCl and 1 mM TCEP. […]

Experiment [2] concerns the target T1, Okp1‐Ame1 (WT, full length) with 10 μM Nkp1‐Nkp2 (S. cerevisiae (budding yeast), UniProt P53298 1-406; P38313 1-324; Q12493 1-238; Q06162 1-153).
T1 construct: Okp1, budding yeast, full length; Ame1, budding yeast, full length; Nkp1, budding yeast, full length; Nkp2, budding yeast, full length; the methods call it a titrated complex (Okp1‐Ame1 with Nkp1/2); also called Okp1‐Ame1 W(T) + 10 μM Nkp1‐Nkp2; Okp1‐Ame1 with Nkp1/2; source: E. coli, purified heterodimers Okp1‐Ame1 and Nkp1‐Nkp2, mixed; copies: + + +
Put plainly: fluorescence polarisation; as a2 (20 nM FITC‐Cse4^28‐60, full-length Okp1‐Ame1 titrated, 200 mM NaCl) with 10 μM Nkp1‐Nkp2 added in excess. As to conditions: both partners purified. Background: In fluorescence polarisation assays a small probe gives low polarisation when free and higher when bound to something large.

The target of experiment [3] is T2, minimal Okp1^125‐275 – Ame1^124‐231 heterodimer (S. cerevisiae (budding yeast), UniProt P53298 125-275; P38313 124-231).
T2 construct: Okp1, budding yeast, residues 125-275; Ame1, budding yeast, residues 124-231; no tag; also called truncated Okp1‐Ame1 complex; minimal Okp1‐Ame1 complex used for crystallography; source: E. coli Rosetta 2 (pLysS), pet-Duet co-expression, purified (TALON, TEV cleavage, ion exchange, gel filtration); not shown: His6, N-terminal, cleaved; copies: 1 + 1
Description: fluorescence polarisation; 20 nM FITC‐Cse4^28‐60, truncated Okp1‐Ame1 titrated; 100 mM HEPES pH 7.5, 600 mM NaCl, 1 mM TCEP; 30 min at room temperature; 20 μM points left out of the fit. As to conditions: both partners purified.

For experiment [4], the target named is T3, Okp1‐Ame1 heterodimer, full length, wild type (S. cerevisiae (budding yeast), UniProt P53298 1-406; P38313 1-324).
T3 construct: Okp1, inner kinetochore (Ctf19c) protein of budding yeast, full length; Ame1, inner kinetochore (Ctf19c) protein of budding yeast, full length; also called Okp1‐Ame1 (WT); FL; copies: 1 + 1
Description: fluorescence polarisation; 20 nM FITC‐Cse4^28‐60, full-length Okp1‐Ame1 titrated; 100 mM HEPES pH 7.5, 200 mM NaCl, 1 mM TCEP; 30 min at room temperature; one site – total binding fit; triplicate. The following applies: both partners purified.

The target in experiment [5] is T4, Okp1(EYAA)‐Ame1, full length (S. cerevisiae (budding yeast), UniProt P53298 1-406; P38313 1-324, E235A | Y238A).
T4 construct: Okp1, budding yeast, full length, with E235A and Y238A; Ame1, budding yeast, full length; also called okp1‐E235,Y238A; okp1‐E235A,Y238A; source: recombinant; copies: 1 + 1
The experiment is described as above. The following applies: both partners purified.

Experiment [6] has as its target T5, Okp1‐Ame1(I195Y), full length (S. cerevisiae (budding yeast), UniProt P53298 1-406; P38313 1-324, I195Y).
T5 construct: Okp1, budding yeast, full length; Ame1, budding yeast, full length, with I195Y; source: recombinant; copies: 1 + 1
The experiment is described as above. As to conditions: both partners purified.

For the next experiment, the target named is T6, Okp1^125‐275 (S. cerevisiae (budding yeast), UniProt P53298 125-275).
T6 construct: Okp1, budding yeast, residues 125-275; Single chain of m2, written for the pairwise contacts of the crystal structure; also called Okp1 (chain of the crystallised minimal heterodimer); source: E. coli Rosetta 2 (pLysS), co-expressed with Ame1^124‐231, purified; not shown: His6, N-terminal, cleaved
Description: crystal structure; Okp1^125‐275 – Ame1^124‐231 mixed with Cse4^28‐60 peptide 1:1.3; hanging drop, 18°C, 19% PEG 8000, 0.55 M lithium sulfate; 1.8 Å, space group P4(2)2(1)2. As to conditions: both partners purified.

The target of experiment [7] is T2, minimal Okp1^125‐275 – Ame1^124‐231 …. The experiment is described as above. The following applies: both partners purified.
Another experiment concerns the target T7, Ame1^124‐231 (S. cerevisiae (budding yeast), UniProt P38313 124-231).
T7 construct: Ame1, budding yeast, residues 124-231; no tag; Single chain of m2, written for the pairwise contacts of the crystal structure; also called Ame1 (chain of the crystallised minimal heterodimer); source: E. coli Rosetta 2 (pLysS), co-expressed with Okp1^125‐275, purified
The experiment is described as above. As to conditions: both partners purified.

Experiment [8] addresses T3, Okp1‐Ame1 heterodimer, full length, …. Description: pull-down; GST‐Cse4^28‐60 (or GST) mixed with prey, held on glutathione agarose resin, 4°C 1 h, 20 mM Tris pH 8.5, 200 mM NaCl, 1 mM TCEP; eluted with glutathione; SDS–PAGE. As to conditions: both partners purified.
The target of experiment [9] is T8, six‐protein COMA‐Nkp1‐Nkp2 complex (S. cerevisiae (budding yeast), UniProt P53298 1-406; P38313 1-324; Q02732 1-369; Q06675 1-368; Q12493 1-238; Q06162 …).
T8 construct: Okp1, budding yeast, full length; Ame1, budding yeast, full length; Ctf19, budding yeast, full length; Mcm21, budding yeast, full length; Nkp1, budding yeast, full length; Nkp2, budding yeast, full length; constructs as in Hinshaw & Harrison 2019; source: E. coli, purified heterodimers Okp1‐Ame1, Ctf19‐Mcm21 and Nkp1‐Nkp2; copies: + + + + +
Described as above. As to conditions: both partners purified.

For experiment [10], the target named is T2, minimal Okp1^125‐275 – Ame1^124‐231 …. The description is as above. The following applies: both partners purified.
Experiment [11] has as its target T9, four‐protein COMA complex (Ctf19‐Okp1‐Mcm21‐Ame1) (S. cerevisiae (budding yeast), UniProt P53298 1-406; P38313 1-324; Q02732 1-369; Q06675 1-368).
T9 construct: Okp1, budding yeast, full length; Ame1, budding yeast, full length; Ctf19, budding yeast, full length; Mcm21, budding yeast, full length; constructs as in Hinshaw & Harrison 2019; source: E. coli, purified heterodimers Okp1‐Ame1 and Ctf19‐Mcm21; copies: + + +
Described as above. As to conditions: both partners purified.

Where no end group is shown, it is not given here.

T2 sequence (P53298 125-275, chain 1 of 2): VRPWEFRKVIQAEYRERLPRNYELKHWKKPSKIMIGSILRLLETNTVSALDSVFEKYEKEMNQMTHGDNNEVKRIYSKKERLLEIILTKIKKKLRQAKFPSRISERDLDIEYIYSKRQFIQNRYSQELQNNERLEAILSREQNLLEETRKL
T2 sequence (P38313 124-231, chain 2 of 2): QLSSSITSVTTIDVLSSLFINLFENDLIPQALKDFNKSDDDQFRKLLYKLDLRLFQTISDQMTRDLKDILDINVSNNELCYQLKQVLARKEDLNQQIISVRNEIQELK
T3 sequence (P53298 whole entry, chain 1 of 2): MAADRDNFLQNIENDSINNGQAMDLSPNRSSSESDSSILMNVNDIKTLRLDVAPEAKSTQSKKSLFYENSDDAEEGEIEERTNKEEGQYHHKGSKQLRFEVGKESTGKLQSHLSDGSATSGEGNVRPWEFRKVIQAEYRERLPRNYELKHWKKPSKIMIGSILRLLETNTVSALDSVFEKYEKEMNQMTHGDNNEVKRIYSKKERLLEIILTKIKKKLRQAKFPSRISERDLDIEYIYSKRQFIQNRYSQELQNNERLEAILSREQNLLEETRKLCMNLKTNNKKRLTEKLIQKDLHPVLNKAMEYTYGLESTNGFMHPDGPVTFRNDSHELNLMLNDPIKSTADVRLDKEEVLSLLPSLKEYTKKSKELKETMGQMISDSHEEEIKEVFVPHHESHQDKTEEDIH
T3 sequence (P38313 whole entry, chain 2 of 2): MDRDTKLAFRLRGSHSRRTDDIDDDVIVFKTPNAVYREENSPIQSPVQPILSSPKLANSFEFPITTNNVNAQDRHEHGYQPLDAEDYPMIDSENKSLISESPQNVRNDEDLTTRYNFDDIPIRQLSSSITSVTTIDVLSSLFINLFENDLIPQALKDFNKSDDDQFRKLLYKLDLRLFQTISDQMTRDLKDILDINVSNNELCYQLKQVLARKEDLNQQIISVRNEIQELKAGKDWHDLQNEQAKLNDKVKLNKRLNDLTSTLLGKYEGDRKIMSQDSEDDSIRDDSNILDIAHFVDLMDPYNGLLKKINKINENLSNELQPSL
T4 sequence (P53298 whole entry E235A/Y238A, chain 1 of 2): as the sequence (P53298 whole entry, chain 1 of 2) above, with E235A, Y238A counted along it
T4 sequence (P38313 whole entry, chain 2 of 2): as the sequence (P38313 whole entry, chain 2 of 2) above
T7 sequence (P38313 124-231): as the sequence (P38313 124-231, chain 2 of 2) above
T9 sequence (P53298 whole entry, chain 1 of 4): as the sequence (P53298 whole entry, chain 1 of 2) above
T9 sequence (P38313 whole entry, chain 2 of 4): as the sequence (P38313 whole entry, chain 2 of 2) above
T9 sequence (Q02732 whole entry, chain 3 of 4): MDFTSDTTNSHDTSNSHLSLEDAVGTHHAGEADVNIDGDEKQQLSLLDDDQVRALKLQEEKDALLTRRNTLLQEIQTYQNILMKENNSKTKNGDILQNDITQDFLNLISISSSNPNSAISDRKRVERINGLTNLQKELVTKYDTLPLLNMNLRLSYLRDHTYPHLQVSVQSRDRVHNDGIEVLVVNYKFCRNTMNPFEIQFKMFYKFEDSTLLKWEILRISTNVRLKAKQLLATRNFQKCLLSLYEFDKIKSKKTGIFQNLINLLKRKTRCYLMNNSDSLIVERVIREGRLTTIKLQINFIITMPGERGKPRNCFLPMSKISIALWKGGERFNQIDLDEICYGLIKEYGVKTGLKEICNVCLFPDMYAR
T9 sequence (Q06675 whole entry, chain 4 of 4): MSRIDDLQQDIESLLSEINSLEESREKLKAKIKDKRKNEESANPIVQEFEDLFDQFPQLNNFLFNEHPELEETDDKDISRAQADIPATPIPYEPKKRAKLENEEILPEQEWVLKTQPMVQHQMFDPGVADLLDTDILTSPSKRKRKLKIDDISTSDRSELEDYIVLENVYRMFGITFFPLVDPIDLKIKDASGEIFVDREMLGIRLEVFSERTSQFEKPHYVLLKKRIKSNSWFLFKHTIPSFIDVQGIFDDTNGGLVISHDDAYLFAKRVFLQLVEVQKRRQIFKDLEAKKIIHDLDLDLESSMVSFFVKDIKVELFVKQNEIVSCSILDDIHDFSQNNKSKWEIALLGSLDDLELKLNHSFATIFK
T1 sequence (P53298 whole entry, chain 1 of 4): as the sequence (P53298 whole entry, chain 1 of 2) above
T1 sequence (P38313 whole entry, chain 2 of 4): as the sequence (P38313 whole entry, chain 2 of 2) above
T1 sequence (Q12493 whole entry, chain 3 of 4): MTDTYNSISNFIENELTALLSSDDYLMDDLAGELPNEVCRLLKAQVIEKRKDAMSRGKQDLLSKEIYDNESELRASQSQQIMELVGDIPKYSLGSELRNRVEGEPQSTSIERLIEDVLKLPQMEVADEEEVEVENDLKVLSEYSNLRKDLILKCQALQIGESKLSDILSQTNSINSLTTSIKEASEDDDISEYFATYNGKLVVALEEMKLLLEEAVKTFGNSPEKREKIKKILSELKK
T1 sequence (Q06162 whole entry, chain 4 of 4): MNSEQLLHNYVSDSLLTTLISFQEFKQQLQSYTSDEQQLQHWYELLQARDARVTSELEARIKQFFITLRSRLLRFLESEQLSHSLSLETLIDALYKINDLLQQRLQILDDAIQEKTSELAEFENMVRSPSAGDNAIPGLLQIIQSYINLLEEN
T5 sequence (P53298 whole entry, chain 1 of 2): as the sequence (P53298 whole entry, chain 1 of 2) above
T5 sequence (P38313 whole entry I195Y, chain 2 of 2): as the sequence (P38313 whole entry, chain 2 of 2) above, with I195Y counted along it
T6 sequence (P53298 125-275): as the sequence (P53298 125-275, chain 1 of 2) above

Take “GST‐Cse4^END: Cse4 residues 28–60 with TEV‐cleavable N‐terminal Glutathione S‐transferase tag (AGDQQSINDRALSLLQRTRATKNLFPRREERRR; not fully specified (N-terminus))”: the “binding in GST pulldown” value in the experiment with Okp1‐Ame1 is “bound Okp1‐Ame1”; in the experiment on COMA complex, “equally well”; in the experiment on COMA‐Nkp1‐Nkp2 complex, “equally well”; in experiment [1] it was “preserved GST‐Cse4^END binding”.
Consider “cse4‐L41,42A: Cse4^END L41,42A mutant, GST fusion (AGDQQSINDRALSAAQRTRATKNLFPRREERRR; not fully specified (N-terminus))”, for which the “binding in GST pulldown” value in the experiment on Okp1‐Ame1 is on record as “failed to bind”.
On to “cse4‐L41D: Cse4^END L41D mutant, GST fusion (GST-TEV-Cse4^28-60(L41D)) (AGDQQSINDRALSDLQRTRATKNLFPRREERRR; not fully specified (N-terminus))”, for which the “binding in GST pulldown” value in the experiment on Okp1‐Ame1 is “failed to bind”.
For “cse4‐L42D: Cse4^END L42D mutant, GST fusion (GST-TEV-Cse4^28-60(L42D)) (AGDQQSINDRALSLDQRTRATKNLFPRREERRR; not fully specified (N-terminus))”, the “binding in GST pulldown” value in the experiment on Okp1‐Ame1 was “failed to bind”.

B1: FITC‐Cse4^28‐60 peptide (peptide, UniProt P36012 28-60, looked up)
peptide: AGDQQSINDRALSLLQRTRATKNLFPRREERRR
modifications: not fully specified (N-terminus); also: FITC label, position not given here
notes: Cse4, S. cerevisiae, residues 28-60; also called FITC‐Cse4^END; FITC‐labeled Cse4^END peptide; source: synthetic peptide (Tufts University Core Facility)
For orientation: Kd means the free concentration of one partner at which half of the binding sites on the other are occupied at equilibrium, for simple one-to-one binding. Low values mean tighter binding, high ones weaker binding. In the case of B1, the Kd in experiment [2] was 133 nM; in experiment [3] it was roughly 750 nM; in [4], 152 nM; in experiment [5] it was greater than 3000 nM; in [6], greater than 3000 nM.

B2: Cse4^28‐60 peptide (Cse4^END peptide) (peptide, UniProt P36012 28-60, looked up)
peptide: AGDQQSINDRALSLLQRTRATKNLFPRREERRR
notes: Cse4, S. cerevisiae, residues 28-60 (residues 34-46 ordered in the crystal); also called minimal Cse4^END peptide; source: synthetic peptide (Tufts University Core facility)
Take B2: the binding result (with Okp1^125‐275; in experiment [7]; in the experiment with Ame1^124‐231) was “binds” each time.

B3: GST‐Cse4^END (GST fusion of Cse4 residues 28–60) (domain or fragment, S. cerevisiae, UniProt P36012 28-60, looked up)
chain: AGDQQSINDRALSLLQRTRATKNLFPRREERRR
notes: Cse4, centromeric histone H3 variant of S. cerevisiae, Essential N-terminal Domain, residues 28-60; The GST tag is TEV-cleavable (pLIC vector) but was kept for the pull-downs; also called GST‐Cse4^28‐60; source: E. coli Rosetta 2 (pLysS), purified (glutathione agarose); not shown: GST, N-terminal, kept
Regarding B3, the binding result in experiment [8], in experiment [9], in experiment [10] and in experiment [11] was “binds” in each case.

Values taken from paper PMC10702835, “Recognition of centromere‐specific histone Cse4 by the inner kinetochore Okp1‐Ame1 complex” (EMBO Reports, 2023).
